Assay results: patent US7064106B2, “Gene and use thereof” (Takeda Chemical Industries, Ltd., priority 1999, dated 2006)

Assays:
Format in all cases: cell-based
[1] = biological target: T1, profilin IIL (Homo sapiens, UniProt P35080); assay: Yeast two-hybrid HIS3 growth test, MD36 and profilin family; settings: S. cerevisiae Y190; 40 mM 3-amino-1,2,4-triazole
T1 construct: expressed in transfected cells; host or cells: Saccharomyces cerevisiae Y190
T1 sequence (P35080 1-140): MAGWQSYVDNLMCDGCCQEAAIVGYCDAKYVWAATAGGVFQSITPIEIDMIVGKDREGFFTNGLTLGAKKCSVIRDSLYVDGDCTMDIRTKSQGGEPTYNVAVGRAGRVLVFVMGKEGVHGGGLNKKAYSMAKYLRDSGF
Procedure: Using as a template human skeletal muscle-derived cDNA and as an enzyme Pfu polymerase (STRATAGENE), the reaction was carried out at 95° C. for 30 seconds, at 65° C. for 45 seconds and at 72° C. for 60 seconds, for 35 cycles. As a result of PCR, the DNA fragment of 745 bp was found, in addition to the DNA fragment of 423 bp or profilin II, and named profilin IIL. The base sequence for cDNA of profilin IIL is shown by SEQ ID NO:29, and the amino acid sequence of profilin II is shown by SEQ ID NO:28.
The protein-protein interaction between MD36 and the profilin family was detected by the yeast two-hybrid system. Based on pGBT9 (CLONTECH), expression plasmids were constructed to express the coding regions of profiling I (Evangelista et al., Science, 276, 118–122, 1997; Imamura et al., EMBO J., 16, 2745–2755, 1997; Tanaka, Biochem. Biophys. Res. Commun., 267, 479–481, 2000), profilin II (Schluter et al., Biohim. Biophys. Acta, 1359, 97–109, 1997), and profiling IIL in the form fused to yeast GAL4-DNA-binding domain protein under control of yeast ADH1 promoter. These plasmids were named pG-PFNI, pG-PFNII and pG-PFNIII, respectively (yeast selection marker was TRP1). […]

[2] = biological target: T2, C-terminal cytoplasmic domain (amino acid numbers 451–492) of mouse GLUT1 (Mus musculus, UniProt P17809); assay: Yeast two-hybrid β-galactosidase assay, interaction with glucose transporter; settings: bait mouse GLUT1 (451–492); prey human MD36 cDNA 2995–3674 fused to GAL4-AD
T2 construct: the C-terminal cytoplasmic domain (amino acid numbers 451–492) of mouse GLUT1; expressed in transfected cells; host or cells: Saccharomyces cerevisiae Y190
T2 sequence (P17809 451-492): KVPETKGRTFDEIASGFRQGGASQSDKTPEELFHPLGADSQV
Procedure: (§1) As the bait sequence, the C-terminal cytoplasmic domain (amino acid numbers 468–510; SEQ ID NO:13 and SEQ ID NO:14) of mouse GLUT4 was used. For control, similar procedures were performed using the C-terminal cytoplasmic domain (amino acid numbers 451–492) of mouse GLUT1, which is the other protein of glucose transporters. These sequences were isolated from the respective cDNAs by PCR using pfu polymerase (manufactured by Stratagene, Inc.) and constructed to be expressed as the fusion proteins in the GAL4-BD sequence of pGBT9 (manufactured by Clontech, Inc.). On the other hand, human MD36 cDNA (base numbers 2995–3674 in SEQ ID NO:3) fused to GAL4-AD was used as the prey sequence. S. Cerevisiae Y190 was transformed by these plasmids, and the binding activity of MD36 to each of the glucose transporters was assayed in terms of the β-galactosidase activity.

[3] = biological target: T3, C-terminal cytoplasmic domain (amino acid numbers 468–510) of mouse GLUT4 (Mus musculus, UniProt P14142); assay: as above; settings: bait mouse GLUT4 (468–510); prey human MD36 cDNA 2995–3674 fused to GAL4-AD
T3 construct: amino acid numbers 468–510; expressed in transfected cells; host or cells: Saccharomyces cerevisiae Y190
T3 sequence (P14142 467-509): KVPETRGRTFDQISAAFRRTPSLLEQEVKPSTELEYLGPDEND
Procedure: as §1

[4] = biological target: T4, profilin II (Homo sapiens, UniProt P35080); assay: Yeast two-hybrid HIS3 growth test, MD36 and profilin family; settings: S. cerevisiae Y190; 40 mM 3-amino-1,2,4-triazole
T4 construct: expressed in transfected cells; host or cells: Saccharomyces cerevisiae Y190
T4 sequence (P35080 1-140 isoform P35080-2): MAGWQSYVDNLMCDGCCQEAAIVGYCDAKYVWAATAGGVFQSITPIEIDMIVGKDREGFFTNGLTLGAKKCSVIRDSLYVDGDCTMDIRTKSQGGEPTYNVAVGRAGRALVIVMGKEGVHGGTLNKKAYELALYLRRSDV
Source text: (§2) The protein-protein interaction between MD36 and the profilin family was detected by the yeast two-hybrid system. Based on pGBT9 (CLONTECH), expression plasmids were constructed to express the coding regions of profiling I (Evangelista et al., Science, 276, 118–122, 1997; Imamura et al., EMBO J., 16, 2745–2755, 1997; Tanaka, Biochem. Biophys. Res. Commun., 267, 479–481, 2000), profilin II (Schluter et al., Biohim. Biophys. Acta, 1359, 97–109, 1997), and profiling IIL in the form fused to yeast GAL4-DNA-binding domain protein under control of yeast ADH1 promoter. These plasmids were named pG-PFNI, pG-PFNII and pG-PFNIII, respectively (yeast selection marker was TRP1). On the other hand, expression plasmids that express the full-length sequence (SEQ ID NO:1) of MD36, which is IRAP-BP protein, or the coding region from this N-terminus to the sequence (SEQ ID NO:33) including the proline-rich domain in the form fused to yeast […] activated domain protein under control of yeast ADH1 promoter was constructed based on pACT2 (CLONTECH), and named pACT-MD36 and pACT-MD36NT, respectively (yeast selection marker was LEU2). pG-PFNI, pG-PFNII, pG-PFNIII or, pGBT9 for control was co-transfected to yeast Saccharomyces cerevisiae Y190 together with pACT-MD36 or pACT-MD36NT, and yeast strains bearing plasmids from the two were selected on SD medium free of tryptophan and leucine. S. cerevisiae Y190 is originally a histidine auxotrophic strain but when the introduced proteins on the plasmids show the interactions, reporter gene HIS3 is expressed and the strain becomes capable of growing on a histidine-free plate. The yeast strain acquired was spread on tryptophan, leucine and histidine-free SD medium supplemented with 40 mM 3-amino-1,2,4-triazole.

[5] = tested on: profilin I; assay: as above; settings: S. cerevisiae Y190; 40 mM 3-amino-1,2,4-triazole
Source text: as §2

B1: MD36: human skeletal muscle-derived IRAP binding protein, SEQ ID NO:1; C-terminal part (bases 2995–3674) used in binding tests (protein, listed as Homo sapiens)
chain: MAGGEDRGDGEPVSVVTVRVQYLEDTDPFACANFPEPRRAPTCSLDGALPLGAQIPAVHRLLGAPLKLEDCALQVSPSGYYLDTELSLEEQREMLEGFYEEISKGRKPTLILRTQLSVRVNAILEKLYSSSGPELRRSLFSLKQIFQEDKDLVPEFVHSEGLSCLIRVGAAADHNYQSYILRALGQLMLFVDGMLGVVAHSDTIQWLYTLCASLSRLVVKTALKLLLVFVEYSENNAPLFIRAVNSVASTTGAPPWANLVSILEEKNGADPELLVYTVTLINKTLAALPDQDSFYDVTDALEQQGMEALVQRHLGTAGTDVDLRTQLVLYENALKLEDGDIEEAPGAGGRRERRKPSSEEGKRSRRSLEGGGCPARAPEPGPTGPASPVGPTSSTGPALLTGPASSPVGPPSGLQASVNLFPTISVAPSADTSSERSIYKLHQTASVWAPESPPVPQSPPGQARLEARFLENVAAAETEKQVALAQGRAETLAGAMPNEAGGHPDARQLWDSPETAPAARTPQSPAPCVLLRAQRSLAPEPKEPLIPASPKAEPIWELPTRAPRLSIGDLDFSDLGEDEDQDMLNVESVEAGKDIPAPSPPLPLLSGVPPPPPLPPPPPIKGPFPPPPPLPLAAPLPHSVPDSSALPTKRKTVKLFWRELKLAGGHGVSASRFGPCATLWASLDPVSVDTARLEHLFESRAKEVLPSKKAGEGRRTMTTVLDPKRSNAINIGLTTLPPVHVIKAALLNFDEFAVSKDGIEKLLTMMPTEEERQKIEEAQLANPDIPLGPAENFLMTLASIGGLAARLQLWAFKLDYDSMEREIAEPLFDLKVGMEQLVQNATFRCILATLLAVGNFLNGSQSSGFELSYLEKVSEVKDTVRRQSLLHHLCSLVLQTRPESSDLYSEIPALTRCAKVDFEQLTENLGQLERRSRAAEESLRSLAKHELAPALRARLTHFLDQCARRVAMLRIVHRRVCNRFHAFLLYLGYTPQAAREVRIMQFCHTLREFALEYRTCRERVLQQQQKQATYRERNKTRGRMITETEKFSGVAGEAPSNPSVPVAVSSGPGRGDADSHASMKSLLTSRPEDTTHNRRSRGMVQSSSPIMPTVGPSTASPEEPPGSSLPSDTSDEIMDLLVQSVTKSSPRALAARERKRSRGNRKSLRRTLKSGLGDDLVQALGLSKGPGLEV
- growth of yeast on tryptophan, leucine and histidine-free SD medium [1]: Growth of the yeast was noted
- binding activity of MD36 to glucose transporter in terms of β-galactosidase activity [2]: scarcely bound
- binding activity of MD36 to glucose transporter in terms of β-galactosidase activity [3]: bound
- growth of yeast on tryptophan, leucine and histidine-free SD medium [4]: did not grow
- growth of yeast on tryptophan, leucine and histidine-free SD medium [5]: did not grow
